Data reported in PMC12286842 (Nature, 2025).

Target: T1, ^15N-labelled ubiquitin (WT, untagged) (UniProt P0CG48 1-76, ^15N-labelled)
T1 construct: ubiquitin, the 76-residue mature protein; also called ^15N-ubiquitin; source: E. coli BL21 (DE3) in M9 medium with ^15N-ammonium chloride, purified (cation exchange, Superdex 75 SEC)
Assay: NMR titration; ^1H-^15N HSQC of ^15N-ubiquitin titrated with unlabelled UBR4-UBL; 25 mM NaPi pH 7.0, 150 mM NaCl, 1 mM TCEP, 10% D2O; global fit of chemical shift perturbations to 1:1 binding
Details: both partners purified

B1: 6×His-tagged UBR4-UBL (residues 4340–4463) (domain or fragment, human, UniProt Q5T4S7-1 4340-4463, looked up)
chain: YPEENEVTEFFVTLEKDPQQEDFLQGRMPGNPYSSNEPGIGPLMRDIKNKICQDCDLVALLEDDSGMELLVNNKIISLDLPVAEVYKKVWCTTNEGEPMRIVYRMRGLLGDATEEFIESLDSTT
notes: UBR4 ubiquitin-like (UBL) domain, residues 4340–4463 of UniProt Q5T4S7-1; also called UBL domain; UBR4 UBL domain; source: E. coli BL21 (DE3), purified (Ni-NTA HisTrap FF, Superdex 75 SEC)
  Kd: 124 µM
